Measurements reported in patent US20110275699A1, “Treatment For Obesity And Diabetes” (University of California, priority 2010, published 2011).

Biological target: FLAG-tagged USF-1 (wild type, overexpressed in cells) (UniProt P22415)
Test: cell-based or functional assay

Sequence of UniProt P22415 (P22415 whole entry): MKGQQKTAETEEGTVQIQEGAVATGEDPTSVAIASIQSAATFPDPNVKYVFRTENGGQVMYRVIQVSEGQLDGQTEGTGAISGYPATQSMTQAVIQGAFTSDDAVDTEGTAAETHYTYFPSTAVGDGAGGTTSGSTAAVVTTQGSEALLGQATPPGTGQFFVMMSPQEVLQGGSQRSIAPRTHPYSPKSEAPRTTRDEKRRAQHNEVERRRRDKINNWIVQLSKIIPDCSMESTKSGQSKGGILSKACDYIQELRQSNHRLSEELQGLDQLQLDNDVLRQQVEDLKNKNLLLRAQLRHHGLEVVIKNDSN

FAS promoter activity (-444 FAS-Luc reporter)	Substance
50 % decrease	HDAC9, overexpressed in cells (from UniProt Q9UKV0 1-1011) (enzyme)
2 fold	P/CAF, overexpressed in cells (from UniProt Q92831 1-832) (enzyme)
